The values that follow come from patent US20090191208A1 (INOTEK PHARMACEUTICALS, published 2009).

Assay [1] deals with T1, Salmonella muenchen Flagellin (supplied by Inotek) (Salmonella muenchen, UniProt P06177 2-505).
T1 sequence: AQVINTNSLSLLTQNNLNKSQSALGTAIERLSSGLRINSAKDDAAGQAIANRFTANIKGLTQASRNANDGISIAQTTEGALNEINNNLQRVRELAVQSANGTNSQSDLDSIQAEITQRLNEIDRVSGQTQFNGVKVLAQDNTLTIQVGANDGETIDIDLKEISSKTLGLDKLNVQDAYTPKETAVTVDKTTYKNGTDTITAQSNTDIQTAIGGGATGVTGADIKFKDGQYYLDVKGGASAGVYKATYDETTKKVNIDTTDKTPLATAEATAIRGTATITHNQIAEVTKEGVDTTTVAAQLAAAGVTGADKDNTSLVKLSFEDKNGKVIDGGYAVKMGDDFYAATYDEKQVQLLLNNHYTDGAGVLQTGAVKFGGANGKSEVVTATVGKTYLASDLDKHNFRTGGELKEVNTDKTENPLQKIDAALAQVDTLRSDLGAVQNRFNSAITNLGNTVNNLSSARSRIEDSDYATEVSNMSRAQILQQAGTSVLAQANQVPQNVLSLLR
In words: competition ELISA on plate-coated S. muenchen flagellin; competitor biotinylated mAb 741 at 0.6 µg/ml; mouse control antibody.

For the next assay, the target named is T2, Salmonella flagellin (Salmonella, UniProt P06177 2-505, limits assumed).
T2 sequence: T1 sequence
Kind of assay: BIACore (SPR); Salmonella flagellin.

The next assay has as its target T3, Pseudomonas flagellin (Pseudomonas, UniProt P21184 2-394).
T3 chain: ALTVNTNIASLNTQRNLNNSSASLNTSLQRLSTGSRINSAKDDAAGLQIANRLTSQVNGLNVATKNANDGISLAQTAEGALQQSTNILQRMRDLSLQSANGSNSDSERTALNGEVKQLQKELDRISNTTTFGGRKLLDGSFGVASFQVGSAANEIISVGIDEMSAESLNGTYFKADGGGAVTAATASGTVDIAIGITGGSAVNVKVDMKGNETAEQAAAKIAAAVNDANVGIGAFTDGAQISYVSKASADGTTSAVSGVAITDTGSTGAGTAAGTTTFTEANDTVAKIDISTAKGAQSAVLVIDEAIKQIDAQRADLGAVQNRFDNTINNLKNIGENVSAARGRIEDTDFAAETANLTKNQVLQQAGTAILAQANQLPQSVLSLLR
In words: BIACore (SPR); Pseudomonas flagellin.

The target of assay [2] is T4, recombinant SM flagellin protein (a/a 1-156) (Salmonella muenchen, UniProt P06177 1-156).
T4 construct: The antigen is amino acids 1-156 of S. muenchen flagellin, expressed in E. coli from pET 30C behind the His tag; also called recombinant S. muenchen flagellin; fusion protein; not shown: N-terminal His tag and vector-encoded residues of pET 30C
T4 sequence: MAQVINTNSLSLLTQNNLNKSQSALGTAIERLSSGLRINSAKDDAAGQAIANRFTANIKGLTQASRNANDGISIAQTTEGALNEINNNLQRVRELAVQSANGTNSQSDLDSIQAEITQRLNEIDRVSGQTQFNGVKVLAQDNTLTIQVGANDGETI
Kind of assay: ELISA of hybridoma supernatants for anti-SM flagellin reactivity.

B1: murine mAb 741 (antibody, V domains shown)
VH: QVQLQQSGAELVGPGASVTLSCKASGHTFTDYEMHWVKQTPVHGLEWIGGIDPETGGTAYNQKLKGEATLTADKSSNTAYMELRSLTSEDSAVYYCTIYLDYWGRGTTLTVSS
VL: QIVLTQSPAIMSASPGEKVTMTCSANSSINYMHWYQQKPGTSPKRWIYDTTILASGVPARFSGSGSGTSYSLTISSMEAEDAATYYCHQRSSYPFTFGSGTKLEIK
notes: also called mouse control antibody
With B1, the half-maximal inhibitory concentration (IC50) in assay [1] worked out at 1.9 µg/mL.

B2: human mAb 763 (antibody, V domains shown)
VH: EVQLLESGGALVQPGGSLRLSCAASGFTFSSYAMSWARQAPGKGLEWLSGISGSADNTYYAESVKGRFTTSRDNSMNMLYLQMNSLRDEDTAFYYCAKGDQDRGPLEFWGQGTLVTVSS
VL: SYELTQPPSVSVSPGQTARITCSGDALPKQYAYWYQQKPGQAPVLLIYQDTKRPSGIPERFSGSSSGTTVALTISGVQAEDEADYYCQSADSNDSYYVFGTGTKVTVL
Consider B2, for which the Kd with Salmonella flagellin was approximately 0.1 nM; in the assay with Pseudomonas flagellin it was approximately 1000 nM. In assay [2], the binding result is “binds”.
